Measurements: the Immune Epitope Database (IEDB)

Legend:
HLA-B*07:02 = assay: IEDB peptide-MHC binding, purified MHC/direct/fluorescence; filed as Kd, often an IC50 or EC50 that approximates it; ≥ and ≤ were set here for values at or beyond the usual limits of such assays
HLA-B*58:01 = assay: as above
HLA-A*03:01 = assay: as above
HLA-B*15:01 [1] = assay: as above
HLA-B*44:02 = assay: as above
HLA-A*01:01 [2] = assay: as above
HLA-A*24:02 = assay: as above
HLA-B*27:05 = assay: as above
HLA-B*40:01 = assay: as above
HLA-A*02:01 [3] = assay: as above
HLA-B*08:01 = assay: as above
HLA-C*12:03 = assay: as above; conditions: source organism: Vaccinia virus WR
HLA-C*08:02 = assay: as above; conditions: source organism: Vaccinia virus WR
HLA-C*06:02 = assay: as above; conditions: source organism: Vaccinia virus WR
HLA-C*04:01 = assay: as above
HLA-C*15:02 = assay: as above; conditions: source organism: Vaccinia virus WR
HLA-A*02:01 [4] = assay: IEDB peptide-MHC binding, purified MHC/competitive/fluorescence; filed as Kd, often an IC50 or EC50 that approximates it; ≥ and ≤ were set here for values at or beyond the usual limits of such assays
HLA-A*26:03 = assay: IEDB peptide-MHC binding, purified MHC/direct/fluorescence; filed as Kd, often an IC50 or EC50 that approximates it; ≥ and ≤ were set here for values at or beyond the usual limits of such assays; conditions: source organism: Ravn virus - Ravn, Kenya, 1987
HLA-A*24:03 = assay: as above
HLA-B*57:01 [5] = assay: as above
HLA-B*08:03 = assay: as above; conditions: source organism: Ravn virus - Ravn, Kenya, 1987
HLA-A*68:02 = assay: as above; conditions: source organism: Marburg virus - Musoke, Kenya, 1980
HLA-A*11:01 = assay: as above
HLA-A*23:01 = assay: as above; conditions: source organism: Marburg virus - Musoke, Kenya, 1980
HLA-A*69:01 = assay: as above; conditions: source organism: Marburg virus - Musoke, Kenya, 1980
HLA-A*31:01 = assay: as above
HLA-B*15:17 = assay: as above; conditions: source organism: Marburg virus - Musoke, Kenya, 1980
HLA-B*15:01 [6] = assay: IEDB peptide-MHC binding, purified MHC/competitive/fluorescence; filed as Kd, often an IC50 or EC50 that approximates it; ≥ and ≤ were set here for values at or beyond the usual limits of such assays; conditions: source organism: Orthomarburgvirus marburgense
HLA-B*18:01 [7] = assay: as above; conditions: source organism: Orthomarburgvirus marburgense
HLA-A*02:06 = assay: as above; conditions: source organism: Orthomarburgvirus marburgense
HLA-B*35:01 = assay: as above; conditions: source organism: Orthomarburgvirus marburgense
HLA-A*26:02 = assay: as above; conditions: source organism: Orthomarburgvirus marburgense
HLA-C*05:01 = assay: IEDB peptide-MHC binding, purified MHC/direct/fluorescence; filed as Kd, often an IC50 or EC50 that approximates it; ≥ and ≤ were set here for values at or beyond the usual limits of such assays; conditions: source organism: Escherichia coli B171
HLA-A*80:01 = assay: as above
HLA-B*57:01 [8] = assay: IEDB peptide-MHC binding, purified MHC/competitive/radioactivity; filed as Kd, often an IC50 or EC50 that approximates it; ≥ and ≤ were set here for values at or beyond the usual limits of such assays; conditions: source organism: Dengue virus 2 Jamaica/1409/1983
HLA-B*15:01 [9] = assay: as above; conditions: source organism: Dengue virus 2 Jamaica/1409/1983
HLA-A*30:02 = assay: as above; conditions: source organism: Dengue virus 2 Jamaica/1409/1983
HLA-A*32:01 = assay: as above; conditions: source organism: Dengue virus 2 Jamaica/1409/1983
HLA-B*08:02 = assay: IEDB peptide-MHC binding, purified MHC/direct/fluorescence; filed as Kd, often an IC50 or EC50 that approximates it; ≥ and ≤ were set here for values at or beyond the usual limits of such assays; conditions: source organism: Mammarenavirus lassaense
HLA-B*46:01 = assay: as above
HLA-B*18:01 [10] = assay: as above; conditions: source organism: Mammarenavirus lassaense
HLA-B*48:01 = assay: as above; conditions: source organism: Mammarenavirus lassaense
HLA-A*29:02 = assay: as above; conditions: source organism: Mammarenavirus lassaense
HLA-A*01:01 [11] = assay: IEDB peptide-MHC binding, purified MHC/competitive/fluorescence; filed as Kd, often an IC50 or EC50 that approximates it; ≥ and ≤ were set here for values at or beyond the usual limits of such assays; conditions: source organism: Homo sapiens
[12] = source organism: Giardia lamblia ATCC 50803
[13] = source organism: Vaccinia virus WR
[14] = source organism: Marburg virus - Musoke, Kenya, 1980
[15] = source organism: Mycobacterium tuberculosis
[16] = source organism: Mammarenavirus lassaense
[17] = source organism: Influenza A virus (A/Viet Nam/HN/2004(H5N1))

ETKKRMDYF showed a Kd (HLA-B*07:02; [12]) of no less than 20 µM, a Kd (HLA-B*58:01; [12]) of no less than 20 µM and a Kd (HLA-A*03:01; [12]) of no less than 20 µM. For the same sequence, the Kd (HLA-B*15:01 [1]; [12]) was no less than 20 µM, the Kd (HLA-B*44:02; [12]) was no less than 20 µM and the Kd (HLA-A*01:01 [2]; [12]) was no less than 20 µM. The Kd (HLA-A*24:02; [12]) was no less than 20 µM, the Kd (HLA-B*27:05; [12]) was no less than 20 µM and the Kd (HLA-B*40:01; [12]) was no less than 20 µM. For the same sequence, the Kd (HLA-A*02:01 [3]; [12]) was no less than 20 µM and the Kd (HLA-B*08:01; [12]) was 1.56 µM.

With FTSSFYNYV the Kd (HLA-C*12:03) was no more than 0.001 µM, the Kd (HLA-C*08:02) was 0.818 µM and the Kd (HLA-C*06:02) was 0.089 µM. The Kd (HLA-C*04:01; [13]) was no less than 20 µM, the Kd (HLA-C*15:02) was 0.019 µM and the Kd (HLA-A*02:01 [4]; [13]) was 0.0046 µM.

For GFPSLESSF, the Kd (HLA-B*07:02; [14]) was no less than 20 µM, the Kd (HLA-B*58:01; [14]) was no less than 20 µM and the Kd (HLA-A*26:03) was no less than 20 µM. It also gave a Kd (HLA-A*24:03; [14]) of 0.0395 µM, a Kd (HLA-B*57:01 [5]; [14]) of no less than 20 µM and a Kd (HLA-B*08:03) of no less than 20 µM. It also gave a Kd (HLA-A*68:02) of no less than 20 µM, a Kd (HLA-A*11:01; [14]) of no less than 20 µM and a Kd (HLA-A*23:01) of 0.0555 µM. It also gave a Kd (HLA-A*01:01 [2]; [14]) of no less than 20 µM, a Kd (HLA-A*24:02; [14]) of 0.26 µM and a Kd (HLA-A*69:01) of no less than 20 µM. The Kd (HLA-A*31:01; [14]) was no less than 20 µM, the Kd (HLA-A*02:01 [3]; [14]) was no less than 20 µM and the Kd (HLA-B*15:17) was no less than 20 µM. For the same sequence, the Kd (HLA-B*08:01; source organism: Ravn virus - Ravn, Kenya, 1987) was no less than 20 µM, the Kd (HLA-B*15:01 [6]) was no less than 20 µM and the Kd (HLA-B*18:01 [7]) was 0.263 µM. It also gave a Kd (HLA-A*02:06) of 2.92 µM, a Kd (HLA-B*35:01) of 0.877 µM and a Kd (HLA-A*26:02) of no less than 20 µM.

HADDIPVPV was tested, and the Kd (HLA-C*05:01) was 0.004 µM, the Kd (HLA-C*04:01; source organism: Escherichia coli B171) was no less than 20 µM and the Kd (HLA-A*02:01 [4]; source organism: Escherichia coli) was 0.0649 µM.

For IFPSMYFLM, the Kd (HLA-A*24:02; source organism: Entamoeba histolytica HM-1:IMSS) was 0.002 µM.

KTVCVQATK was tested, and the Kd (HLA-A*80:01; [15]) was no less than 20 µM and the Kd (HLA-A*01:01 [2]; [15]) was no less than 20 µM.

KTWAYHGSY gave a Kd (HLA-B*57:01 [8]) of 0.00457 µM, a Kd (HLA-B*15:01 [9]) of 0.00288 µM and a Kd (HLA-A*30:02) of 4.05 µM. For the same sequence, the Kd (HLA-A*32:01) was 0.00506 µM and the Kd (HLA-A*80:01; source organism: dengue virus type 3) was 3 µM.

Sequence LFPELDCFF has a Kd (HLA-A*24:03; source organism: Orthohantavirus dobravaense) of 0.011 µM and a Kd (HLA-C*04:01; source organism: Kurkino virus) of no less than 20 µM.

For MYMALIAAF, the Kd (HLA-C*04:01; source organism: Yellow fever virus) was no less than 20 µM.

QLDQRRALL gave a Kd (HLA-B*58:01; [16]) of no less than 20 µM, a Kd (HLA-B*57:01 [5]; [16]) of no less than 20 µM and a Kd (HLA-B*08:02) of 15.1 µM. For the same sequence, the Kd (HLA-B*46:01; [16]) was no less than 20 µM, the Kd (HLA-B*15:01 [1]; [16]) was no less than 20 µM and the Kd (HLA-B*18:01 [10]) was no less than 20 µM. It also gave a Kd (HLA-B*48:01) of no less than 20 µM, a Kd (HLA-B*44:02; [16]) of no less than 20 µM and a Kd (HLA-B*27:05; [16]) of no less than 20 µM. The Kd (HLA-A*29:02) was no less than 20 µM and the Kd (HLA-B*08:01; [16]) was 0.773 µM.

RNEQGQTLW showed a Kd (HLA-B*07:02; [17]) of no less than 20 µM, a Kd (HLA-B*58:01; [17]) of 0.0718 µM and a Kd (HLA-B*46:01; [17]) of no less than 20 µM. It also gave a Kd (HLA-A*03:01; [17]) of no less than 20 µM, a Kd (HLA-B*15:01 [1]; [17]) of no less than 20 µM and a Kd (HLA-A*11:01; [17]) of no less than 20 µM. It also gave a Kd (HLA-B*44:02; [17]) of no less than 20 µM, a Kd (HLA-A*01:01 [2]; [17]) of no less than 20 µM and a Kd (HLA-A*24:02; [17]) of no less than 20 µM. It also gave a Kd (HLA-B*27:05; [17]) of no less than 20 µM, a Kd (HLA-B*40:01; [17]) of no less than 20 µM and a Kd (HLA-A*31:01; [17]) of no less than 20 µM. The Kd (HLA-A*02:01 [3]; [17]) was no less than 20 µM and the Kd (HLA-B*08:01; [17]) was no less than 20 µM.

WVDSTPPPG showed a Kd (HLA-A*80:01; source organism: Homo sapiens) of no less than 20 µM and a Kd (HLA-A*01:01 [11]) of 11.6 µM.
